In patent US8147838B2, “Peptide” (priority 2005, dated 2012):

Tests used:
Details in all cases: percent of positive control peptide binding; peptide at 1.11×10^−5M
[1] = molecular target: MHC class I allele A*0101 (A1) (Homo sapiens, UniProt P04439, A114D/A174V/A182V/D101N/D185E/E176A/E190D/L180R/Q94H/R68K/S129P/T187R/V100A/V91M/W191G); experiment: iTopia peptide binding assay, A*0101
Protocol: (§1) The 9 mers were tested for Peptide Binding, Off Rate and Affinity using iTopia Epitope Discovery System in accordance with the manufacturer's instructions. Briefly, 96 well microtitre plates coated with MHC molecules representing different MHC alleles are used to identify candidate peptides. […] Determinations are performed in duplicate using an ELISA plate reader and included allele specific positive controls.
(§2) i) Peptide Binding—This assay measures the ability of individual peptides to bind to the MHC molecules under standardized optimal binding conditions. The assay is performed for all the test peptides across the selected MHC alleles. The test peptides identified as “binders” are characterized further in terms of affinity and dissociation experiments.
(§3) Following a period of binding under optimal conditions, excess antibody is removed and a measurement of total fluorescence taken (D).
(§4) The binding of the test peptides to the MHC molecules was performed at 1.11×10^−5M of peptide under optimal, standardised test conditions. A control peptide was run in parallel on the same plate and at the same concentration as the test peptides.
(§5) The level of binding is expressed as a percent of positive control peptide binding for each allele.

[2] = molecular target: MHC class I allele A*0201 (A2) (Homo sapiens, UniProt P04439, D140Y/D185E/D98H/E176V/E277Q/G131W/G231S/I119V/I121R/I166T/I218V/L300P/L318F/N151K/N90K/P208A/P217A/Q86G/Q94H/R138H/R169H/T345S); experiment: iTopia peptide binding assay, A*0201
Protocol: as §1, §2, §3, §4, §5

[3] = molecular target: MHC class I allele A*0301 (A3) (Homo sapiens, UniProt P04439); experiment: iTopia peptide binding assay, A*0301
Protocol: as §1, §2, §3, §4, §5

[4] = molecular target: MHC class I allele B*0702 (B7) (Homo sapiens, UniProt P01889); experiment: iTopia peptide binding assay, B*0702
Protocol: as §1, §2, §3, §4, §5

Row | Sequence | Peptide binding, MHC Class I Molecule A*0101 [1] | Peptide binding, MHC Class I Molecule A*0201 [2] | Peptide binding, MHC Class I Molecule A*0301 [3] | Peptide binding, MHC Class I Molecule B*0702 [4]
1 | TEVPTDLPA [Peptide 42] | 3 % of control | 7 % of control | 0 % of control | 0 % of control
2 | AFEHLPSLR [Peptide 69] | 1 % of control | 11 % of control | 11 % of control | 0 % of control
3 | CAYPEKMRN [Peptide 162] | 0 % of control | 11 % of control | 4 % of control | 3 % of control
4 | YRYEINADP [Peptide 201] | 0 % of control | 0 % of control | 1 % of control | 3 % of control
5 | VVAALLAGR [Peptide 100] | 9 % of control | 11 % of control | 49 % of control | 7 % of control
6 | NNSLVSLTY [Peptide 122] | 8 % of control | 12 % of control | 4 % of control | 0 % of control
7 | RDHMEGYHY [Peptide 197] | 11 % of control | 6 % of control | 3 % of control | 5 % of control
8 | NHIVPPEDE [Peptide 91] | 6 % of control | 11 % of control | 3 % of control | 5 % of control
9 | CSRGPAAGD [Peptide 3] | 0 % of control | 3 % of control | 5 % of control | 3 % of control
10 | EDERQNRSF [Peptide 94] | 0 % of control | 2 % of control | 4 % of control | 4 % of control
11 | DCDPILPPS [Peptide 172] | 0 % of control | 0 % of control | 3 % of control | 0 % of control
12 | SSSPTSSAS [Peptide 16] | 4 % of control | 7 % of control | 2 % of control | 8 % of control
13 | AELQGLPHI [Peptide 140] | 0 % of control | 9 % of control | 1 % of control | 0 % of control
14 | LELNSADLD [Peptide 168] | 0 % of control | 3 % of control | 5 % of control | 3 % of control
15 | HLESLHLED [Peptide 130] | 4 % of control | 3 % of control | 2 % of control | 2 % of control
16 | LTCAYPEKM [Peptide 161] | 16 % of control | 40 % of control | 8 % of control | 5 % of control
17 | LGIVLALIG [Peptide 180] | 0 % of control | 10 % of control | 1 % of control | 0 % of control
18 | TDLPAYVRN [Peptide 44] | 7 % of control | 3 % of control | 1 % of control | 2 % of control
19 | LDNNPWVCD [Peptide 146] | 0 % of control | 0 % of control | 2 % of control | 3 % of control
20 | DCHMADMVT [Peptide 150] | 0 % of control | 7 % of control | 3 % of control | 5 % of control
21 | PAGAFARRP [Peptide 54] | 2 % of control | 4 % of control | 3 % of control | 7 % of control
22 | VSAPSPLVE [Peptide 85] | 3 % of control | 13 % of control | 7 % of control | 3 % of control
23 | SADLDCDPI [Peptide 170] | 0 % of control | 4 % of control | 4 % of control | 3 % of control
24 | INADPRLTN [Peptide 203] | 0 % of control | 3 % of control | 1 % of control | 4 % of control
25 | ETEVVQGKD [Peptide 156] | 0 % of control | 1 % of control | 3 % of control | 1 % of control
26 | ESLHLEDNA [Peptide 131] | 2 % of control | 8 % of control | 0 % of control | 0 % of control
27 | DNALKVLHN [Peptide 134] | 1 % of control | 5 % of control | 0 % of control | 0 % of control
28 | VSSSSPTSS [Peptide 15] | 3 % of control | 9 % of control | 2 % of control | 2 % of control
29 | VQGKDRLTC [Peptide 158] | 0 % of control | 4 % of control | 6 % of control | 6 % of control
